Measurements from US10828354B2, “Laser-assisted intradermal administration of active substances” (PANTEC BIOSOLUTIONS AG, priority 2015, dated 2020).

What was measured:
[1] = tested on: tumor infiltrating CD8+ and CD4+ T cells; experiment: Intracellular IFNgamma and tetramer staining of tumor-infiltrating T cells; assay type: in vivo, mouse; conditions: day 11 after immunization, PMA and ionomycin restimulation
Method: D B6 mice were subcutaneously inoculated with B16-OVA or B16 and immunized 3 days later with 20 μl of PBS containing OVA (1.5 μg) or XCL1-OVA (2.5 μg) vaccibodies using laser-assisted, dermal delivery. On day 11 after immunization, the tumor mass of each mouse was excised and the percentage of […] cells determined among tumor infiltrating CD8^+ and CD4^+ T cells. Data are shown for each individual mouse and the mean (horizontal bar) is indicated for each condition. **, p<0.01; *, p<0.05 and NS for non significant.
A, B, C Mice were immunized as in FIG. 4C. […]
To assess whether the reduction in melanoma tumor growth observed upon treatment with XCL1-OVA vaccibodies was associated with the induction of endogeneous, antigen-specific CD8^+ T cells, wild-type and Xcr1^−/− mice were immunized via laser-assisted intradermal delivery of XCL1-OVA vaccibodies. Six days after immunization, the magnitude of OVA-specific T cell cytotoxicity was measured using an in vivo cytotoxic assay (FIG. 5 C). […]
Mice were injected subcutaneously (s.c.) into the flank with 10^5 B16-OVA or B16 melanoma cells (Brown et al, 2001). Tumor size was assessed 14 to 16 days later using a caliper. The presence of T cells infiltrating the tumor was assessed after enzymatic treatment of tumor mass with collagenase 2 (Worthington) and Percoll gradient (Amersham-Pharmacia). […]

[2] = tested on: B16-OVA melanoma; experiment: B16-OVA melanoma tumor model; assay type: in vivo, mouse; conditions: for tumor growth, therapeutic setting: B6 mice, immunized 3 days after s.c. inoculation, monitored 16 days after inoculation, vs OVA and PBS groups
Method: B Cohort of mice treated as specified in A with 20 μl of PBS containing OVA (low dose: 1.5 μg or high dose: 3.1 μg), or XCL1-OVA vaccibodies (low dose 2.5 μg or high dose 5.0 μg) were analyzed for tumor volume. Control mice were treated with 20 μl of PBS. Tumor volume is shown for each individual mouse and the mean (horizontal bar) is indicated for each condition.***, p<0.001; **, p<0.01; *, p<0.05 and NS: non significant.
C Time line of the prophylactic setting involving laser-assisted, dermal delivery of 20 μl of PBS containing OVA (1.5 μg) or XCL1-OVA vaccibodies (2.5 μg), subcutaneaous inoculation of the B16-OVA melanoma, and tumor volume measurement.
The B16-OVA melanoma is not rejected by immune-competent syngeneic B6 mice, unless mice have been subjected to prophylactic or therapeutic immunization. To evaluate the capacity of laser-assisted, intradermal delivery of XCL1-OVA vaccibodies to inhibit the growth of B16-OVA tumors, B6 mice were subcutaneously inoculated in the flank with B16-OVA cells (FIG. 4A). Three days later, the ear of the mice was subjected to laser-assisted, dermal delivery of XCL1-OVA vaccibodies and tumor growth was monitored 16 days after inoculation. For the sake of comparison, mice received equimolar amounts of free OVA or PBS. […] To investigate the prophylactic effects on tumor growth of laser-assisted intradermal XCL1-OVA immunization, B6 mice were immunized with XCL1-OVA vaccibodies and subcutaneously inoculated with B16-OVA tumor cells 30 days later (FIG. 4C).
(§1) Mice were injected subcutaneously (s.c.) into the flank with 10^5 B16-OVA or B16 melanoma cells (Brown et al, 2001). Tumor size was assessed 14 to 16 days later using a caliper. The presence of T cells infiltrating the tumor was assessed after enzymatic treatment of tumor mass with collagenase 2 (Worthington) and Percoll gradient (Amersham-Pharmacia).

[3] = tested on: SIINFEKL peptide-pulsed splenocytes; experiment: In vivo cytotoxicity assay; design: species or system mouse
Method: C B6 (WT) and Xcr1^−/− mice were subjected to laser-assisted, dermal delivery of 20 μl of PBS containing OVA (1.5 μg) or XCL1-OVA (2.5 μg) vaccibodies or of 20 μl of PBS (control), or. On day 6, mice were injected with CFSE-labeled target cells to quantitate the induced OVA-specific cytotoxicity in vivo (see Materials and Methods). The percent specific lysis is shown for each individual mouse and the mean (horizontal bar) is indicated for each condition. *, p<0.05.
To assess whether the reduction in melanoma tumor growth observed upon treatment with XCL1-OVA vaccibodies was associated with the induction of endogeneous, antigen-specific CD8^+ T cells, wild-type and Xcr1^−/− mice were immunized via laser-assisted intradermal delivery of XCL1-OVA vaccibodies. Six days after immunization, the magnitude of OVA-specific T cell cytotoxicity was measured using an in vivo cytotoxic assay (FIG. 5 C). […] Therefore, laser-assisted, intradermal delivery of XCL1-OVA vaccibodies induced anti-tumoral responses that can be correlated with the presence of OVA-specific IFNgamma^+ T cells in the regressing tumor mass.
Splenocytes from B6 mice were pulsed with the SIINFEKL peptide or left untreated and labeled with low (0.25 mM) or high (2.5 mM) dose of CTV, respectively. […] 36 h later, single-cell suspension were prepared from spleen and the ratio of CTV^high to CTV^low cells was determined by FACS.

[4] = tested on: B16 melanoma; experiment: B16 melanoma tumor model; assay type: in vivo, mouse; conditions: B6 mice immunized 3 days after inoculation, day 11 after immunization
Method: A B6 mice were subcutaneously inoculated with B16-OVA or B16 melanoma, and immunized 3 days later with XCL1-OVA vaccibodies using laser-assisted, dermal delivery. On day 11 after immunization, the volume of the tumor developing in each mouse was determined. Data are shown for each individual mouse and the mean (horizontal bar) is indicated for each condition. **, p<0.01.
The B16-OVA melanoma is not rejected by immune-competent syngeneic B6 mice, unless mice have been subjected to prophylactic or therapeutic immunization. To evaluate the capacity of laser-assisted, intradermal delivery of XCL1-OVA vaccibodies to inhibit the growth of B16-OVA tumors, B6 mice were subcutaneously inoculated in the flank with B16-OVA cells (FIG. 4A). Three days later, the ear of the mice was subjected to laser-assisted, dermal delivery of XCL1-OVA vaccibodies and tumor growth was monitored 16 days after inoculation. For the sake of comparison, mice received equimolar amounts of free OVA or PBS. […]
as §1

[5] = tested on: OT-I CD8+ and OT-II CD4+ T cells; experiment: Proliferation of adoptively transferred CTV-labeled OT-I and OT-II T cells after laser-assisted dermal antigen delivery; assay type: in vivo, mouse
Method: B Single-cell suspension were prepared from ear-draining, auricular LNs from B6 mice that received OT-I and OT-II T cells and were immunized by applying on laser-microporated ear 20 μl of PBS containing OVA (3.1 μg), XCL1-OVA vaccibodies (5 μg), XCL1 (1.8 μg) plus OVA (3.1 μg), or PBS alone as a control. CTV dilution of OT-I and OT-II T cells was measured 72 h after antigen delivery. Numbers in histograms indicate the percentage of divided T cells (n=3).
To test whether targeting XCR1^+ dermal DCs with antigen-loaded XCL1-based vaccibodies induced the activation of antigen-specific T cells in vivo, the model antigen OVA was inserted into XCL1-based vaccibodies. Mice were adoptively transferred with CellTraceViolet (CTV)-labeled, OT-I CD8^+ T cells, which express a T cell receptor (TCR) specific for SIINFEKL, an ovalbumin (OVA) peptide presented by H-2K^b, and OT-II CD4^+ T cells, which express a TCR specific for an OVA peptide presented by H2-A^b. One day later, the ear of the mice were subjected to laser-assisted microporation and topical application of XCL1-OVA vaccibodies. To compare the potency of the XCL1-OVA formulation with that of free OVA, mice were also treated with concentrations of OVA equimolar to that present in XCL1-OVA vaccibodies. Three days after immunisation, single-cell suspensions were prepared from ear-draining auricular lymph nodes (LNs) and the extent of OT-I and OT-II cell proliferation was determined by CTV dilution (FIG. 3A).
A P.L.E.A.S.E. portable laser developed by Pantec Biosolutions AG (Bach et al, 2012) was used with the following setting: fluence: 11.9 J/cm^2, pulse duration: 75 μs; RepRate: 200 Hz; pulses per pore: 2, pore array size: 14 mm^2 and pore density 8%. P.L.E.A.S.E.-assisted skin microporation was performed on the ear of anesthetized mice. 20 μl of sterile PBS, 20 μl of sterile PBS containing 1.5 μg (low) or 3.1 μg (high) OVA, or 20 μl of sterile PBS containing 2.5 μg (low) or 5 μg (high) XCL1-OVA were then evenly applied on the microporated ear surface. The PBS solution percolated inside the micropores in less than 10 minutes.
OT-I and OT-II T cells were isolated from pooled LNs and spleen of OT-I or OT-II mice kept on a Rag-2^−/−-B6 [CD45.1] background using CD8^+ and CD4^+ T cell negative isolation kits (Dynal, Invitrogen), respectively. Purity was determined by staining with CD4, CD8, CD5 and TCR Vα2. For CTV labeling, purified OT-I and OT-II T cells were resuspended in PBS containing 2.5 mM cell trace violet (CTV) (Molecular Probes) for 3 min at room temperature. 10^6 CTV-labeled OT-I and OT-II T cells were adoptively transferred into the specified mice. At the indicated times, single-cell suspensions were prepared from the auricular LNs draining the immunized ears and OT-I and OT-II T cells were analyzed by FACS.

[6] = B6 mice, auricular LNs, 3 days after immunisation

## ovalbumin [model antigen ovalbumin in free form, equimolar comparator, reference compound]
[1]
  IFN gamma production by CD8+ and CD4+ T cells infiltrating B16-OVA tumor mass: did not induce IFN[…]^+ T cells over PBS control
[2]
  tumor growth, therapeutic setting: unable to slow down tumor growth

B1: XCL1-OVA vaccibodies: homodimeric chimeric protein of XCL1 chemokine, dimerization unit of hinge and CH3 domain of human IgG3, and OVA antigen moiety (protein)
chain: VGTEVLEESSCVNLQTQRLPVQKIKTYIIWEGAMRAVIFVTKRGLKICADPEAKWVKAAIKTVDGRASTRKNMAETVPTGAQRSTSTAITLTGELKTPLGDTTHTCPRCPEPKSCDTPPPCPRCPEPKSCDTPPPCPRCPEPKSCDTPPPCPRCPAPELLGGPSVFLFPPKPKDTLMISRTPEVTCVVVDVSHEDPEVQFKWYVDGVEVHNAKTKPREEQYNSTFRVVSVLTVLHQDWLNGKEYKCKVSNKALPAPIEKTISKTKGQPREPQVYTLPPSREEMTKNQVSLTCLVKGFYPSDIAVEWESSGQPENNYNTTPPMLDSDGSFFLYSKLTVDKSRWQQGNIFSCSVMHEALHNRFTQKSLSLSPGKGSIGAASMEFCFDVFKELKVHHANENIFYCPIAIMSALAMVYLGAKDSTRTQINKVVRFDKLPGFGDSIEAQCGTSVNVHSSLRDILNQITKPNDVYSFSLASRLYAEERYPILPEYLQCVKELYRGGLEPINFQTAADQARELINSWVESQTNGIIRNVLQPSSVDSQTAMVLVNAIVFKGLWEKAFKDEDTQAMPFRVTEQESKPVQMMYQIGLFRVASMASEKMKILELPFASGTMSMLVLLPDEVSGLEQLESIINFEKLTEWTSSNVMEERKIKVYLPRMKMEEKYNLTSVLMAMGITDVFSSSANLSGISSAESLKISQAVHAAHAEINEAGREVVGSAEAGVDAASVSEEFRADHPFLFCIKHIATNAVLFFGRCVSP
[3]; Xcr1−/− mice
  OVA-specific T cell cytotoxicity in vivo (specific lysis): absence of detectable lysis
[3]; wild-type mice, six days after immunization, vs PBS treated mice
  OVA-specific T cell cytotoxicity in vivo: induced a significant T cell cytotoxicity
[4]
  tumor growth of B16 melanoma: not able to control the growth of B16 melanoma
[1]
  IFN gamma production by CD8+ and CD4+ T cells infiltrating B16-OVA tumor mass: capable of producing interferon (IFN) gamma
[2]; B6 (WT) vs Xcr1−/− mice
  inhibition of B16-OVA tumor growth, XCR1 dependence: dependent on the expression of XCR1
[2]; B6 mice immunized 30 days before inoculation, monitored 14 days after inoculation, vs OVA and PBS
  tumor growth, prophylactic setting: significantly slowed down tumor growth
[2]
  tumor growth, therapeutic setting: significantly suppressed tumor growth
[2]; high dose 5.0 μg XCL1-OVA
  tumor growth, therapeutic setting, high dose vs low dose: tumor growth was further reduced
[5]; [6]
  effectiveness at eliciting CD4+ T cell proliferation relative to free OVA, per molecule: 3 times
  effectiveness at eliciting CD8+ T cell proliferation relative to free OVA, per molecule: 15 times
[5]; B6 mice, ear-draining auricular LNs, 72 h after laser-assisted delivery, equimolar amounts
  OT-I and OT-II cell proliferation (CTV dilution) compared with free OVA: triggered a higher proliferation of OT-I and OT-II cells than free OVA
[5]; Xcr1−/− mice
  magnitude of OT-I and OT-II proliferation: comparable to that of OVA
[5]; spleen and LNs that drain territories distinct from the ear, 72 h
  proliferation of OT-I and OT-II T cells outside draining LNs: showed no sign of proliferation
